Data published in paper PMC7934860, “Acetylation of muscle creatine kinase negatively impacts high-energy phosphotransfer in heart failure” (JCI Insight, 2021).

Tests used:
[1] = target: the molecule itself; test: cross-linking; quantitative crosslinking MS (XL-MS) with the PIR crosslinker BDP-NHP on rCKM: control, acetylated, and Sirt2-deacetylated; links mapped to PDB 1U6R
[2] = target: the molecule itself; test: native gel or EMSA; human rCKM, nonacetylated or in vitro acetylated, on 10% native-PAGE at 4°C (running buffer 50 mM Tris-Base, 50 mM MOPS, 0.0375% SDS, pH 7.8), blotted with anti-CKM; dimer and monomer bands by densitometry; dimer to monomers
[3] = target: the molecule itself; test: native gel or EMSA; CKM enriched from TAC-stressed mouse hearts, incubated with or without Sirt2 in vitro, then native-PAGE and anti-CKM blot; dimer to monomers
[4] = target: the molecule itself; test: native gel or EMSA; murine cardiac lysates of sham and TAC hearts (50 mM potassium phosphate, 1 mM EDTA, 1 mM beta-mercaptoethanol, pH 7.4, 0.1% Triton X-100) on 10% native-PAGE at 4°C, blotted with anti-CKM; dimer to monomers

B1: Human recombinant CKM, in vitro acetylated and then deacetylated by Sirt2 (enzyme)
chain: not shown
modifications: acetyl-lysines removed in part by Sirt2 (lysine residues 11, 32 and 196 robustly deacetylated)
notes: creatine kinase M-type (muscle form, CKM), human; 381-amino acid polypeptide; Same protein as m2 after the in vitro deacetylation reaction; also called Sirt2-treated rCKM; Sirt2 deacetylated rCKM
- fold increase of the homodimer crosslink K11-K11 against acetylated rCKM [1]: 1.3 fold
- fold increase of the homodimer crosslink K196-K196 against acetylated rCKM [1]: 1.8 fold

B2: Human recombinant creatine kinase MM (rCKM), nonacetylated (enzyme)
chain: not shown
notes: creatine kinase M-type (muscle form, CKM), human; 381-amino acid polypeptide; The rows are of the chain with itself (MM homodimer); also called Human CK MM; CK muscle form; source: bought: R & D Systems (catalog 9070-CK) and Abcam (catalog ab73652)
- stoichiometry N [2]: 2

B3: CKM enriched from TAC-stressed mouse hearts, deacetylated in vitro by Sirt2 (enzyme)
chain: not shown
modifications: lysine acetylation of failing-heart CKM, reduced by Sirt2
notes: creatine kinase M-type (CKM), mouse (129S1/SvImJ); also called enriched CKM from TAC-stressed hearts + Sirt2; source: enriched from TAC mouse hearts (Blue Sepharose, Deae Sephadex A-50), then incubated with Sirt2
- fold decrease of the monomer against enriched TAC CKM without Sirt2 [3]: 3.5 fold

B4: Murine CKM in cardiac lysates of sham and TAC-stressed hearts (enzyme)
chain: not shown
modifications: lysine acetylation, significantly higher in the failing (TAC) hearts
notes: creatine kinase M-type (CKM), mouse (129S1/SvImJ); Sham and TAC hearts are kept as one molecule; the treatment is named in the rows; also called muscle CK isoform; source: endogenous, mouse heart lysate (sham and TAC, 12 weeks)
- fold decrease of the dimer content, TAC against sham hearts [4]: 1.4 fold
- fold increase of the monomer, TAC against sham hearts [4]: 2.8 fold

B5: Human recombinant CKM, in vitro acetylated (enzyme)
chain: not shown
modifications: acetyl-lysine at several lysines after in vitro acetylation (lysine residues 11, 32 and 196 are named; full list in Figure 5D)
notes: creatine kinase M-type (muscle form, CKM), human; 381-amino acid polypeptide; Same protein as m1 after in vitro acetylation; also called acetylated rCKM; in vitro acetylated rCKM
- fold reduction of the homodimer crosslink K11-K11 against control rCKM [1]: 2 fold
- fold reduction of the homodimer crosslink K196-K196 against control rCKM [1]: 9 fold
- fold decrease of the dimer band against nonacetylated rCKM [2]: 2.1 fold
- fold increase of the monomer band against nonacetylated rCKM [2]: 5.6 fold
